Experimental findings from patent publication US20240041989A1 (UNIVERSITY OF KENTUCKY RESEARCH FOUNDATION, published 2024) are described below.

By Kd is commonly meant the free concentration of one partner at which half of the binding sites on the other are occupied at equilibrium, for simple one-to-one binding. Low readings indicate tighter binding, high ones weaker binding.

Test [1] deals with T1, Human FcRn, soluble single-chain fusion protein (B2M-(GGGGS)3-heavy chain without transmembrane domain-6xHis) (human, UniProt P61769 21-119; P55899 24-297).
T1 construct: also called neonatal Fc receptor; hFcRn
Kind of test: ELISA, FcRn coated on plate, pH 6.0. As for the experimental part:
(§1) In vitro binding affinity assay. The binding affinity of the BChE fusion proteins corresponding to CocH3-Fc (SEQ ID NO: 9), CocH3-Fc(M6) (SEQ ID NO: 10), CocH3G-Fc(M3) (SEQ ID NO: 11), CocH3G-Fc(M4) (SEQ ID NO: 12), CocH3G-Fc(M6) (SEQ ID NO: 13), CocH5G-Fc(M3) (SEQ ID NO: 14), CocH5G-Fc(M4) (SEQ ID NO: 15), and CocH5G-Fc(M6) (SEQ ID NO: 16), BChE-Fc(M3) (SEQ ID NO: 17), BChE-Fc(M4) (SEQ ID NO: 18), and BChE-Fc(M6) (SEQ ID NO: 19) with FcRn was determined by using an enzyme-linked immunosorbent assay (ELISA). 400 ng of the 6×His-tagged FcRn in 100 μL 0.05 M PBS, pH 7.4, was immobilized in a 96-well flat-bottomed EIA plate (Corning) at 4° C. overnight (or 37° C. for 2 hours). At the same time, corresponding empty wells without FcRn coating were left as a negative control. The liquid was dumped from the plates and the rest was drained on a paper towel. Coated wells were blocked with blocking buffer (0.05 M PBS, pH 6.0, containing 1 mg/ml casein) (250 μL/well) at room temperature (RT) for 1 hour. After washing twice with washing buffer (0.05 M PBS, pH 6.0) (250 μL/well), 100 μL of BChE fusion protein diluted in blocking buffer, pH 6.0 was added to each well at a range of concentrations. The plate was then covered with an adhesive plastic and incubated, with continuous shaking, at RT for 1 hour. After washing three times with washing buffer, an enzyme horseradish peroxidase (HRP)-conjugated antibody (anti-human IgG-Fc Ab-HRP) (70 μL/well), diluted with blocking buffer at a ratio of 1:20,000, was added into each well and incubated at RT for 30 minutes on a shaker. The wells were then washed three times with washing buffer (250 μL/well) before 250 μL TMB substrate was added to the wells. The ELISA plate was kept in the dark until the desired color developed. The reaction was stopped with 100 μL of 0.5 M HCl. The absorbance (the developed blue color) was measured at 450 nm using a microplate reader. All measurements were performed in triplicate or quadruplicate.
In general terms: An ELISA detects its analyte on a solid surface through an enzyme-linked reagent.

Test [2] concerns the target T1, Human FcRn, soluble single-chain fusion …. Kind of test: ELISA, FcRn coated on plate, pH 6.0; reference CocH3-Fc. Here is the method:
as §1, with “After washing three times with washing buffer, an enzyme horseradish peroxidase (HRP)-conjugated antibody (anti-human IgG-Fc Ab-HRP) (70 μL/well), diluted with blocking buffer at a ratio of 1:20,000, was added into each well and incubated at RT for 30 minutes on a shaker. The wells were then washed three times with washing buffer (250 μL/well) before 250 μL TMB substrate was added to the wells. The ELISA plate was kept in the dark until the desired color developed. The reaction was stopped with 100 μL of 0.5 M HCl.” left out, “All measurements were performed in triplicate or quadruplicate.” left out

Test [3] has the same target. As to the kind of experiment: ELISA, FcRn coated on plate, pH 6.0, anti-human IgG-Fc-HRP detection. Here is the method:
as §1, with “After washing three times with washing buffer, an enzyme horseradish peroxidase (HRP)-conjugated antibody (anti-human IgG-Fc Ab-HRP) (70 μL/well), diluted with blocking buffer at a ratio of 1:20,000, was added into each well and incubated at RT for 30 minutes on a shaker. The wells were then washed three times with washing buffer (250 μL/well) before 250 μL TMB substrate was added to the wells. The ELISA plate was kept in the dark until the desired color developed. The reaction was stopped with 100 μL of 0.5 M HCl.” left out, “All measurements were performed in triplicate or quadruplicate.” left out

T1 sequence (P61769 other isoform, or with tags, fused parts or gaps limits assumed): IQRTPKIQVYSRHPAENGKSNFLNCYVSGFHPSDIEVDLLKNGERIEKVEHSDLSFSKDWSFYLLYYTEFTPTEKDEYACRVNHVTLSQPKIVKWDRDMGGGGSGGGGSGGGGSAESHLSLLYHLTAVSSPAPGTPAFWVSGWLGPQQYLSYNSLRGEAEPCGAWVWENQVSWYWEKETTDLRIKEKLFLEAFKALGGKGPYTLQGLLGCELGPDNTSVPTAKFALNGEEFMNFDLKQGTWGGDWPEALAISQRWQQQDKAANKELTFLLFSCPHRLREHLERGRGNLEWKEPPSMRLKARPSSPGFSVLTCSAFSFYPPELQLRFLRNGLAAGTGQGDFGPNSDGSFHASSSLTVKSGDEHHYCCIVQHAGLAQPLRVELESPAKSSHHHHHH

B1: BChE-Fc(M6) (Fc fusion)
chain: EDDIIIATKNGKVRGMNLTVFGGTVTAFLGIPYAQPPLGRLRFKKPQSLTKWSDIWNATKYANSCCQNIDQSFPGFHGSEMWNPNTDLSEDCLYLNVWIPAPKPKNATVLIWIYGGGFQTGTSSLHVYDGKFLARVERVIVVSMNYRVGALGFLALPGNPEAPGNMGLFDQQLALQWVQKNIAAFGGNPKSVTLFGESAGAASVSLHLLSPGSHSLFTRAILQSGSFNAPWAVTSLYEARNRTLNLAKLTGCSRENETEIIKCLRNKDPQEILLNEAFVVPYGTPLSVNFGPTVDGDFLTDMPDILLELGQFKKTQILVGVNKDEGTAFLVYGAPGFSKDNNSIITRKEFQEGLKIFFPGVSEFGKESILFHYTDWVDDQRPENYREALGDVVGDYNFICPALEFTKKFSEWGNNAFFYYFEHRSSKLPWPEWMGVMHGYEIEFVFGLPLERRDNYTKAEEILSRSIVKRWANFAKYGNPNETQNNSTSWPVFKSTEQKYLTLNTESTRIMTKLRAQQCRFWTSFFPKVVEPKSCDKTHTCPPCPAPELLGGPSVFLFPPKPKDTLYITREPEVTCVVVDVSHEDPEVKFNWYVDGVEVHNAKTKPREEQYNSTYRVVSVLTVLHQDWLNGKEYKCKVSNKALPAPIEKTISKAKGQPREPQVYTLPPSREEMTKNQVSLTCLVKGFYPSDIAVEWESNGQPENNYKTTPPVLDSDGSFFLYSKLTVDKSRWQQGNVFSCSVMHEALHNHYTQKSLSLSPGK
notes: Wild-type BChE fused to Fc(M6)
B1 registered a Kd in test [1] of 40 nM.

B2: CocH3-Fc(M6) (Fc fusion)
chain: EDDIIIATKNGKVRGMNLTVFGGTVTAFLGIPYAQPPLGRLRFKKPQSLTKWSDIWNATKYANSCCQNIDQSFPGFHGSEMWNPNTDLSEDCLYLNVWIPAPKPKNATVLIWIYGGGFQTGTSSLHVYDGKFLARVERVIVVSMNYRVGALGFLALPGNPEAPGNMGLFDQQLALQWVQKNIAAFGGNPKSVTLFGESSGAASVSLHLLSPGSHSLFTRAILQSGSANAPWAVTSLYEARNRTLNLAKLTGCSRENETEIIKCLRNKDPQEILLNEAFVVPYGTPLGVNFGPTVDGDFLTDMPDILLELGQFKKTQILVGVNKDEGTWFLVGGAPGFSKDNNSIITRKEFQEGLKIFFPGVSEFGKESILFHYTDWVDDQRPENYREALGDVVGDYNFICPALEFTKKFSEWGNNAFFYYFEHRSSKLPWPEWMGVMHGYEIEFVFGLPLERRDNYTKAEEILSRSIVKRWANFAKYGNPNETQNNSTSWPVFKSTEQKYLTLNTESTRIMTKLRAQQCRFWTSFFPKVVEPKSCDKTHTCPPCPAPELLGGPSVFLFPPKPKDTLYITREPEVTCVVVDVSHEDPEVKFNWYVDGVEVHNAKTKPREEQYNSTYRVVSVLTVLHQDWLNGKEYKCKVSNKALPAPIEKTISKAKGQPREPQVYTLPPSREEMTKNQVSLTCLVKGFYPSDIAVEWESNGQPENNYKTTPPVLDSDGSFFLYSKLTVDKSRWQQGNVFSCSVMHEALHNHYTQKSLSLSPGK
notes: Expressed in CHO-S cells and purified on protein A; also called A530V/M567Y/S569T/T571E/D671E/L673M mutant of CocH3-Fc
As to B2, the “fold improvement in binding affinity against CocH3-Fc” value in test [2] is about 100 fold. For the same molecule, the Kd in test [1] and in test [3] was 43 nM each time.

B3: CocH5G-Fc(M6) (Fc fusion)
chain: EDDIIIATKNGKVRGMNLTVFGGTVTAFLGIPYAQPPLGRLRFKKPQSLTKWSDIWNATKYANSCCQNIDQSFPGFHGSEMWNPNTDLSEDCLYLNVWIPAPKPKNATVLIWIYGGGFQTGTSSLHVYDGKFLARVERVIVVSMNYRVGALGFLALPGNPEAPGNMGLFDQQLALQWVQKNIAAFGGNPKSVTLFGESSGAASVSLHLLSPGSHSLFTRAILQSGSANAPWAVTSLYEARNRTLNLAKLTGCSRENETEIIKCLRNKDPQEILLNEAFVVPYGTALGVNFGPTVDGDFLTDMPDILLELGQFKKTQILVGVNKDEGTWFLVGGAPGFSKDNNSIITRKEFQEGLKIFFPGVSEFGKESILFHYTDWVDDQRPENYREALGDVVGDYNFICPALEFTKKFSEWGNNAFFYYFEHRSSKLPWPEWMGVMHGYEIEFVFGLPLERRDNYTKAEEILSRSIVKRWANFAKYGNPNETQNNSTSWPVFKSTEQKYLTLNTESTRIMTKLRAQQCRFWGSFFPKVVEPKSCDKTHTCPPCPAPELLGGPSVFLFPPKPKDTLYITREPEVTCVVVDVSHEDPEVKFNWYVDGVEVHNAKTKPREEQYNSTYRVVSVLTVLHQDWLNGKEYKCKVSNKALPAPIEKTISKAKGQPREPQVYTLPPSREEMTKNQVSLTCLVKGFYPSDIAVEWESNGQPENNYKTTPPVLDSDGSFFLYSKLTVDKSRWQQGNVFSCSVMHEALHNHYTQKSLSLSPGK
Turning to B3, in test [1], the Kd is 40 nM.

B4: CocH3G-Fc(M6) (Fc fusion)
chain: EDDIIIATKNGKVRGMNLTVFGGTVTAFLGIPYAQPPLGRLRFKKPQSLTKWSDIWNATKYANSCCQNIDQSFPGFHGSEMWNPNTDLSEDCLYLNVWIPAPKPKNATVLIWIYGGGFQTGTSSLHVYDGKFLARVERVIVVSMNYRVGALGFLALPGNPEAPGNMGLFDQQLALQWVQKNIAAFGGNPKSVTLFGESSGAASVSLHLLSPGSHSLFTRAILQSGSANAPWAVTSLYEARNRTLNLAKLTGCSRENETEIIKCLRNKDPQEILLNEAFVVPYGTPLGVNFGPTVDGDFLTDMPDILLELGQFKKTQILVGVNKDEGTWFLVGGAPGFSKDNNSIITRKEFQEGLKIFFPGVSEFGKESILFHYTDWVDDQRPENYREALGDVVGDYNFICPALEFTKKFSEWGNNAFFYYFEHRSSKLPWPEWMGVMHGYEIEFVFGLPLERRDNYTKAEEILSRSIVKRWANFAKYGNPNETQNNSTSWPVFKSTEQKYLTLNTESTRIMTKLRAQQCRFWGSFFPKVVEPKSCDKTHTCPPCPAPELLGGPSVFLFPPKPKDTLYITREPEVTCVVVDVSHEDPEVKFNWYVDGVEVHNAKTKPREEQYNSTYRVVSVLTVLHQDWLNGKEYKCKVSNKALPAPIEKTISKAKGQPREPQVYTLPPSREEMTKNQVSLTCLVKGFYPSDIAVEWESNGQPENNYKTTPPVLDSDGSFFLYSKLTVDKSRWQQGNVFSCSVMHEALHNHYTQKSLSLSPGK
B4 came in with a Kd in test [1] of 40 nM.
